Entries after “also recorded” stand apart in the source; their conditions may differ.
Experiments:
[1] = target: T1, MT1-MMP hemopexin domain (Homo sapiens, UniProt P50281); assay: MMP-14 FP competition binding between peptide families
T1 construct: Human MMP-14 PEX protein at 71.1 μM monomer
Procedure: FIG. 6 illustrates an analysis of MT-MMP binding ligands. A: MMP-14 FP direct binding in cell-based selections; 1 nM tracer, 60 min data. 17-98-Sar6-k(FI)-and-17-99-Sar6-k(FI)-bind with Kds of 354 nM and 501 nM respectively. B: competition binding with several combinations of peptides, both fluorescein-labelled or native, from soluble and cell based selections.
FIG. 7 illustrates the competition profile between peptide ligands isolated in this example.
• Human MMP-14 PEX protein at 71.1 μM monomer (previously 77.1 μM) (T-017-011), stored in fridge (4/7/14) • Peptides as described in Results section
Method: • Prepare assay buffer: 20 mM HEPES, 150 mM NaCl, 1 mM CaCl2), 0.1% Tween20 (pH 7.6). Buffer was filtered before use to remove precipitate. • Method according to Example 3 with tracer at 1 nM and MMP-14 PEX at concentrations detailed in the graphs • 60 min data analysed • Results are shown in FIG. 6.

[2] = target: T2, EphA3 (Homo sapiens, UniProt P29320); assay: EphA3 FP competition assay with 67-10-05 as labelled tracer; assay type: binding; settings: tracer 67-10-05
T2 construct: So far all selections have been performed with soluble EphA3 ecto domain
T2 sequence (P29320 21-541 limits assumed): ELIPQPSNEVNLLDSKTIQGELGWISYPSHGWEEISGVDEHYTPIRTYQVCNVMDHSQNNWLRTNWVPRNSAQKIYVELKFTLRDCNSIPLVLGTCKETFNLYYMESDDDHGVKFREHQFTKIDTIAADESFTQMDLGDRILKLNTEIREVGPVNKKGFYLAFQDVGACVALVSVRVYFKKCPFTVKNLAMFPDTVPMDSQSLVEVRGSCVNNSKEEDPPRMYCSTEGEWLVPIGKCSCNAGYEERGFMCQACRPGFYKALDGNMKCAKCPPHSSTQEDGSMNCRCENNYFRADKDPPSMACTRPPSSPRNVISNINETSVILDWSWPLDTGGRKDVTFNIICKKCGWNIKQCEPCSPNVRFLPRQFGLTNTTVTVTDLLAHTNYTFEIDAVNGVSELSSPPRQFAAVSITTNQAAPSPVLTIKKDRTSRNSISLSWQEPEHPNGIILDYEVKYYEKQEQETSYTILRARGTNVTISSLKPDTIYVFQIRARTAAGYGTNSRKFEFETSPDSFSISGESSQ

| Sequence | competition with other peptide families [1] | binding site on MT1-MMP [1] | Ki (nM) [2] |
| --- | --- | --- | --- |
| CQNRFPNCPINGFFC [Peptide 17-99] | competes with all the other families |  |  |
| CKMESWECLMLHPKC [Peptide 17-98] |  | binds to the same site as the 17-88 family (the collagen binding site) |  |
| CRASAGQCNPDPKLC [67-24-00-N001, EphA3 peptide from cell-based screening, 6X6 loops] |  |  | No binding |
| CYNEFGCEDFYDIC [Peptide 17-69-07] | do not cross compete | binds to a neutral binding site; also recorded: binding site is distinct from the 17-88/17-98 binding site |  |

Reference: patent publication US11946041B2, “Modification of polypeptides” (BicycleRD Limited, priority 2017, dated 2024)
